“And” between values parts separate entries of the source, which are not always exact repeats. Identical values can stand only once.
Legend:
[1] = molecular target: GEO1900, branched-chain amino acid transaminase (BCAT) from Geoglobus acetivorans (Geoglobus acetivorans); test: crystal structure; GEO1900 holo form and AKG complex, space group P3(2)21, three subunits per asymmetric unit; hexamer built with symmetry mates
[2] = molecular target: GEO1900, branched-chain amino acid transaminase (BCAT) from Geoglobus acetivorans (Geoglobus acetivorans); test: SEC; GEO1900 on Superdex 200 in 30 mM Tris-HCl, pH 8.0, 300 mM NaCl; native molecular weight by gel filtration

stoichiometry N [1]: 6
stoichiometry N [2]: 2 and 4
Substance: GEO1900, branched-chain amino acid transaminase (BCAT) from Geoglobus acetivorans (enzyme)

Source: PMC6353796, “Thermostable Branched-Chain Amino Acid Transaminases From the Archaea Geoglobus acetivorans and Archaeoglobus fulgidus: Biochemical and Structural Characterization” (Frontiers in Bioengineering and Biotechnology, 2019)
